Target: the molecule itself
Assay: crystal structure; CsiD at 13 mg/mL, sitting drop vapour diffusion, 18 °C; apo and with glutarate, succinate or N-oxalylglycine; symmetry P42(1)2, two copies in the asymmetric unit, tetramer generated by crystallographic symmetry

B1: CsiD (carbon starvation induced protein D), glutarate hydroxylase (enzyme, Escherichia coli, UniProt P76621 1-325, looked up)
chain: MNALTAVQNNAVDSGQDYSGFTLTPSAQSPRLLELTFTEQTTKQFLEQVAEWPVQALEYKSFLRFRVAKILDDLCANQLQPLLLKTLLNRAEGALLINAVGVDDVKQADEMVKLATAVAHLIGRSNFDAMSGQYYARFVVKNVDNSDSYLRQPHRVMELHNDGTYVEEITDYVLMMKIDEQNMQGGNSLLLHLDDWEHLDNYFRHPLARRPMRFAAPPSKNVSKDVFHPVFDVDQQGRPVMRYIDQFVQPKDFEEGVWLSELSDAIETSKGILSVPVPVGKFLLINNLFWLHGRDRFTPHPDLRRELMRQRGYFAYASNHYQTHQ
notes: CsiD of Escherichia coli, ORF amplified from E. coli BW25113 and inserted into pET28a; crystals were apo or held glutarate, succinate or N-oxalylglycine; also called glutarate-2-hydroxylase; G-2-H; source: E. coli BL21 (DE3), purified (Ni-NTA)
  stoichiometry N: 4

Source: article PMC6265302, “Widespread bacterial lysine degradation proceeding via glutarate and L-2-hydroxyglutarate” (Nature Communications, 2018)
